Each block holds one binder with its values, some of them ahead of it. Starred links: 1 amine or outer side, 2 acyl side, 3 side chain; linkers in the order of their positions; H or OH if unused. Positions of bridges follow the written chain, without caps; N, C: chain ends. Non-standard residues stand in square brackets, D forms with d. Primed or numbered codes have the meaning given here. (PfPhAc)GA = (S)-2-amino-3-(N-(carboxymethyl)-2-(perfluorophenyl)acetamido)propanoic acid, O=C(Cc1c(F)c(F)c(F)c(F)c1F)N(CC(=O)[*:3])C[C@H](N[*:1])C(=O)[*:2]; (MePipAc)GA = (S)-2-amino-3-(N-(carboxymethyl)-2-(4-methylpiperazin-1-yl)acetamido)propanoic acid, CN1CCN(CC(=O)N(CC(=O)[*:3])C[C@H](N[*:1])C(=O)[*:2])CC1; (NdiMeButC)GAbu = (S)-2-amino-4-(N-(carboxymethyl)-4-(dimethylamino)butanamido)butanoic acid, CN(C)CCCC(=O)N(CC[C@H](N[*:1])C(=O)[*:2])CC(=O)[*:3]; PyrS2″ = (S)-3-amino-1-((pent-4-en-1-yloxy)carbonyl)pyrrolidine-3-carboxylic acid (stapling residue), C=CCCCOC(=O)N1CC[C@@](N[*:1])(C(=O)[*:2])C1; B5(4) = 2,2-bis(4-pentenyl)glycine = 2-amino-2-(pent-4-en-1-yl)hept-6-enoic acid (stitching residue), C=CCCCC(CCCC=C)(N[*:1])C(=O)[*:2]; PyrS2 = (S)-3-amino-1-((pent-4-en-1-yloxy)carbonyl)pyrrolidine-3-carboxylic acid, C=CCCCOC(=O)N1CC[C@@](N[*:1])(C(=O)[*:2])C1; B5(22) = 2-amino-2-(pent-4-en-1-yl)hept-6-enoic acid (two alkene side chains), C=CCCCC(CCCC=C)(N[*:1])C(=O)[*:2]; B5(3) = 2,2-bis(4-pentenyl)glycine (stitching residue), C=CCCCC(CCCC=C)(N[*:1])C(=O)[*:2]; Phe(3-COOH) = N[C@@H](Cc1cccc(C(=O)O)c1)C(=O)O; 2F3MeF = Cc1cccc(C[C@H](N[*:1])C(=O)[*:2])c1F; Phe(2-CF3) = N[C@@H](Cc1ccccc1C(F)(F)F)C(=O)O; Phe(3-Cl) = N[C@@H](Cc1cccc(Cl)c1)C(=O)O; Phe(4-Cl) = N[C@@H](Cc1ccc(Cl)cc1)C(=O)O; Phe(4-NH2) = Nc1ccc(C[C@H](N)C(=O)O)cc1; Bta = N[C@@H](Cc1csc2ccccc12)C(=O)O; αAllylPro = C=CC[C@@]1(C(=O)O)CCCN1; tBuAla = CC(C)(C)C[C@H](N)C(=O)O; 2Thi = N[C@@H](Cc1cccs1)C(=O)O; 3Thi = N[C@@H](Cc1ccsc1)C(=O)O; S8 = C=CCCCCCC[C@](C)(N)C(=O)O; PyrS2(4) = not defined here; 4ClBztA = not defined here; hSer = N[C@@H](CCO)C(=O)O
Legend:
B-cat-Halo = molecular target: T1, B-cat-Halo (UniProt P35222 1-781); test: cell-based or functional assay
T1 sequence (looked up): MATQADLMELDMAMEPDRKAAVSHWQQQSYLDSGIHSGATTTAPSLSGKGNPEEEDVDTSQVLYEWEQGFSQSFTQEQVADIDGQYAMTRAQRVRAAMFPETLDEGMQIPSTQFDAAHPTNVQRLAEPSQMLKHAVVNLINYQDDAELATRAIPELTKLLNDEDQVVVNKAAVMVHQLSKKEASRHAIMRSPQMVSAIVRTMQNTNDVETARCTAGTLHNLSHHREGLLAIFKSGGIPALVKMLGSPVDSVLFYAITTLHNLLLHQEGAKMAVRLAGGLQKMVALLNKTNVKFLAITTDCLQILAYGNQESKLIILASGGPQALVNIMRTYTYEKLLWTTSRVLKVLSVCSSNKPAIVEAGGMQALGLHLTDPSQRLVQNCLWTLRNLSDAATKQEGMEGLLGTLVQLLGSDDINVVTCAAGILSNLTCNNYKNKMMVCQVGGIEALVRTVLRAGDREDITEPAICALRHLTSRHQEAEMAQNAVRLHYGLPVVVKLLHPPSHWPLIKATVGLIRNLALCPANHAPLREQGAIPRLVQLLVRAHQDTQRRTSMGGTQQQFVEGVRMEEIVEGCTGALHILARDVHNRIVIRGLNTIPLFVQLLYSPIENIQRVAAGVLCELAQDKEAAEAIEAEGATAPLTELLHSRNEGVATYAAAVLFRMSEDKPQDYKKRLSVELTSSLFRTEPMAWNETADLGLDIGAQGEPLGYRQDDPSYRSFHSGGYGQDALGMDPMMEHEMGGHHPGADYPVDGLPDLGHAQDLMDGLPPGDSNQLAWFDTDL

[1] = molecular target: T2, B-cat-Halo (beta-catenin HaloTag fusion expressed in HEK293 cells) (UniProt P35222 1-781); test: cell-based or functional assay
T2 sequence (looked up): T1 sequence (looked up)

[2] = molecular target: T3, full-length beta-Catenin (Uniprot ID P35222) (Homo sapiens (Human), UniProt P35222 1-781); test: FP competition vs 5FAM-TCF4(10-53) probe on full-length beta-catenin
T3 construct: the AlphaScreen used a Histidine (Nickel Chelate) detection kit, so a His tag is likely but not described; also called B-Catenin; bCat
T3 sequence: T1 sequence (looked up)
Procedure: The plate was incubated protected from light for 60 minutes at 20° C. prior to read. Reads were performed on a CLARIOstar plate reader (BMG Labtech) in duplicate, and data were fitted to a 1:1 binding model with hill slope using an in-house script. All provided concentrations are final concentrations.

[3] = molecular target: T3, full-length beta-Catenin (Uniprot ID …); test: AlphaScreen competition vs biotin-TCF4(10-53) on full-length beta-catenin
Summary of the method: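 Titrated peptide was preincubated 15 minutes at 20° C, then donor and acceptor beads were added for 60 minutes at 20° C protected from light. Reads were done in duplicate, and data were fitted to a 1:1 binding model with Hill slope; concentrations are final.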

NanoBRET Abs IC50 (B-cat-Halo): 9 µM
Binder: Ac-[αAllylPro]D[tBuAla][B5(3)]D[Phe(3-COOH)]QAFL[PyrS2″][2F3MeF][Phe(4-Cl)]A-NH2 (staple 1-4, 4-11) [I-2223]

NanoBRET Abs IC50 (B-cat-Halo): > 20 µM
Binder: Ac-[αAllylPro]D[tBuAla][B5(22)]D[(MePipAc)GA]AAFL[PyrS2][3Thi][Bta]Q-NH2 (staple 1-4, 4-11) [I-2240]

NanoBRET Abs IC50 (B-cat-Halo): 6.3 µM
Binder: Ac-[αAllylPro]D[tBuAla][B5(3)]D[Phe(3-COOH)]QAFL[PyrS2″][2F3MeF][Phe(3-Cl)]A-NH2 (staple 1-4, 4-11) [I-2227]

NanoBRET Abs IC50 [1]: 4.2 µM
Binder: Ac-[αAllylPro]D[tBuAla][B5(4)]D[Phe(3-COOH)]QAFL[PyrS2″][Phe(2-CF3)][7ClBztA]A-NH2 (staple 1-4, 4-11) [I-2487]

EC50 [2]: 1.3 µM
EC50 [3]: 0.189 µM
B1: I-299 (peptide)
peptide: Ac-[αAllylPro]D[hSer][B5(4)]DDAAFQ[S8]F[Bta]A-NH2
modifications: staple 1-4, 4-11
notes: Ac-PL3-Asp-Hse-B5-Asp-Asp-Ala-Ala-Phe-Gln-S8-Phe-BztA-Ala-NH2; stapled peptide composition

EC50 [3]: 1.75 µM
B2: I-324 (peptide)
peptide: Ac-[αAllylPro]DA[B5(4)]D[Phe(4-NH2)]AAFV[S8]FWQ-NH2
modifications: staple 1-4, 4-11
notes: Ac-PL3-Asp-Ala-B5-Asp-4AmPhe-Ala-Ala-Phe-Val-S8-Phe-Trp-Gln-NH2; stapled peptide composition

NanoBRET Abs IC50 (B-cat-Halo): 17.7 µM
Binder: Ac-[αAllylPro]D[tBuAla][B5(22)]D[(PfPhAc)GA]AAFL[PyrS2][3Thi][Bta]Q-NH2 (staple 1-4, 4-11) [I-2241]

NanoBRET Abs IC50 (B-cat-Halo): 7.8 µM
Binder: Ac-[αAllylPro]D[tBuAla][B5(3)]D[Phe(3-COOH)]QAFV[PyrS2(4)][3Thi][Phe(3-Cl)]A-NH2 (staple 1-4, 4-11; reading uncertain) [I-2225]

NanoBRET Abs IC50 [1]: 6.4 µM
Binder: Ac-[αAllylPro]D[tBuAla][B5(4)]D[Phe(3-COOH)]AAFL[PyrS2″][Phe(2-CF3)][4ClBztA]Q-NH2 (staple 1-4, 4-11; reading uncertain) [I-2490]

NanoBRET Abs IC50 (B-cat-Halo): 10.6 µM
Binder: Ac-[αAllylPro]D[tBuAla][B5(3)]D[Phe(3-COOH)]AAFL[PyrS2″][2F3MeF][Phe(3-Cl)]S-NH2 (staple 1-4, 4-11) [I-2226]

NanoBRET Abs IC50 [1]: 3.6 µM
Binder: Ac-[αAllylPro]D[tBuAla][B5(4)]D[Phe(3-COOH)]AAFL[PyrS2″][Phe(2-CF3)][7FBztA]Q-NH2 (staple 1-4, 4-11) [I-2488]

EC50 [2]: 1.31 µM
EC50 [3]: 0.053 µM
B3: I-325 (peptide)
peptide: Ac-[αAllylPro]DA[B5(4)]DDAA[2Thi]V[S8]FWQ-NH2
modifications: staple 1-4, 4-11
notes: Ac-PL3-Asp-Ala-B5-Asp-Asp-Ala-Ala-2Thi-Val-S8-Phe-Trp-Gln-NH2; stapled peptide composition

NanoBRET Abs IC50 (B-cat-Halo): 25.2 µM
Binder: Ac-[αAllylPro]D[tBuAla][B5(22)]D[(NdiMeButC)GAbu]AAFL[PyrS2][3Thi][Bta]Q-NH2 (staple 1-4, 4-11) [I-2243]

NanoBRET Abs IC50 [1]: 3.7 µM
Binder: Ac-[αAllylPro]D[tBuAla][B5(4)]D[Phe(3-COOH)]AAFL[PyrS2″][Phe(2-CF3)][7ClBztA]Q-NH2 (staple 1-4, 4-11) [I-2486]

NanoBRET Abs IC50 [1]: 7.4 µM
Binder: Ac-[αAllylPro]D[tBuAla][B5(4)]D[Phe(3-COOH)]QAFL[PyrS2″][Phe(2-CF3)][7FBztA]A-NH2 (staple 1-4, 4-11) [I-2489]

NanoBRET Abs IC50 [1]: 6.1 µM
Binder: Ac-[αAllylPro]D[tBuAla][B5(4)]D[Phe(3-COOH)]QAFL[PyrS2″][Phe(2-CF3)][4ClBztA]A-NH2 (staple 1-4, 4-11; reading uncertain) [I-2491]
